Experimental data reported in US7588931B2, “High arachidonic acid producing strains of Yarrowia lipolytica” (E. I. du Pont de Nemours and Company, priority 2004, dated 2009).
“Also recorded” adds a separate entry of the source.

How the values were obtained:
Type in all cases: cell-based, Yarrowia lipolytica
[1] = system: β-glucuronidase (GUS) reporter; test: Comparative analysis of promoters by fluorometric assay of GUS expression
Procedure: GUS activity was also assayed by fluorometric determination of the production of 4-methylumbelliferone (4-MU) from the corresponding substrate β-glucuronide (Jefferson, R. A. Plant Mol. Biol. Reporter 5:387-405 (1987)).
Yarrowia lipolytica ATCC #76982 strains containing plasmids pY5-30, PYZGDG, PYZGMG, pDMW212 and pDMW214 were grown from single colonies in 3 mL MM (as described above) at 30° C. to an OD600˜1.0. Then, the 3 mL cultures were each added to a 500 mL flask containing 50 mL MM and grown in a shaking incubator at 30° C. for about 24 hrs. The cells were collected by centrifugation, resuspended in Promega Cell Lysis Buffer and lysed using the BIO 101 Biopulverizer system (Vista, Calif.). After centrifugation, the supernatants were removed and kept on ice.
Similarly, Y. lipolytica strain Y2034 containing plasmids pY5-30, pYAT-GUS, pYGPAT-GUS and pDMW214 constructs, respectively, were grown from single colonies in 10 mL SD medium at 30° C. for 48 hrs to an OD600˜5.0. Two mL of each culture was collected for GUS activity assays, as described below, while 5 mL of each culture was switched into HGM.
Specifically, cells from the 5 mL aliquot were collected by centrifugation, washed once with 5 mL of HGM and resuspended in HGM. The cultures in HGM were then grown in a shaking incubator at 30° C. for 24 hrs. Two mL of each HGM culture were collected for the GUS activity assay, while the remaining culture was allowed to grow for an additional 96 hrs before collecting an additional 2 mL of each culture for the assay.
Each 2 mL culture sample in SD medium was resuspended in 1 mL of 0.5× cell culture lysis reagent (Promega). Resuspended cells were mixed with 0.6 mL of glass beads (0.5 mm diameter) in a 2.0 mL screw cap tube with a rubber O-ring. The cells were then homogenized in a Biospec mini beadbeater (Bartlesville, Okla.) at the highest setting for 90 sec. The homogenization mixtures were centrifuged for 2 min at 14,000 rpm in an Eppendof centrifuge to remove cell debris and beads. The supernatant was used for GUS assay and protein determination.
For each fluorometric assay, 100 μl of extract was added to […] of GUS assay buffer (2 mM 4-methylumbelliferyl-β-D-glucuronide (“MUG”) in extraction buffer) or 200 μl of extract was added to 800 μl of GUS assay buffer. The mixtures were placed at 37° C. Aliquots of 100 μl were taken at 0, 30 and 60 min time points and added to 900 μl of stop buffer (1 M Na2CO3). Each time point was read using a CytoFluor Series 4000 Fluorescence Multi-Well Plate Reader (PerSeptive Biosystems, Framingham, Mass.) set to an excitation wavelength of 360 nm and an emission wavelength of 455 nm. Total protein concentration of each sample was determined using 10 μl of extract and 200 μl of BioRad Bradford reagent or 20 μl of extract and 980 μl of BioRad Bradford reagent (Bradford, M. M. Anal. Biochem. 72:248-254 (1976)). GUS activity was expressed as nmoles of 4-MU per minute per mg of protein.

[2] = system: β-glucuronidase (GUS) reporter; test: Relative promoter activity rank from comparative GUS reporter studies (histochemical, fluorometric and/or Real Time PCR); set-up: key: a ‘1’ corresponds to the promoter with lowest activity; a ‘7’ corresponds to the promoter with highest activity; conditions: relative to other promoters
Procedure: The activity of GPM is about the same as TEF, while the activity of GPD, FBA, FBAIN, FBAINm, GPDIN, GPAT, YAT1 and EXP1 are all greater than TEF (activity is quantified in a relative manner in the column titled “Activity Rank”, wherein a ‘1’ corresponds to the promoter with lowest activity, while a ‘7’ corresponds to the promoter with highest activity). […] GUS activity in each expressed construct was measured by histochemical and/or fluorometric assays (Jefferson, R. A. Plant Mol. Biol. Reporter 5:387-405 (1987)) and/or by use of Real Time PCR.

[3] = system: β-glucuronidase (GUS) reporter; test: Comparative analysis of promoters by histochemical analysis of GUS expression
Procedure: Comparative studies investigating the promoter activities of the TEF, GPD, GPDIN, GPM, GPAT, FBA, FBAIN and YAT1 promoters were performed, by synthesizing constructs comprising each promoter and the E. coli gene encoding β-glucuronidase (GUS) as a reporter gene (Jefferson, R. A. Nature. 14(342):837-838 (1989)). Then, GUS activity was measured by histochemical and fluorometric assays (Jefferson, R. A. Plant Mol. Biol. Reporter 5:387-405 (1987)) and/or by using Real Time PCR for mRNA quantitation.
Yarrowia lipolytica ATCC #76982 strains containing plasmids pY5-30, pYZGDG, pYZGMG, pDMW212 and pDMW214 were grown from single colonies in 3 mL MM at 30° C. to an OD600˜1.0. Then, 100 μl of cells were collected by centrifugation, resuspended in 100 μl of histochemical staining buffer, and incubated at 30° C. Staining buffer was prepared by dissolving 5 mg of 5-bromo-4-chloro-3-indolyl glucuronide (X-Gluc) in 50 μl dimethyl formamide, followed by the addition of 5 mL 50 mM NaPO4, pH 7.0.
In a separate experiment, Y. lipolytica Y2034 strains containing plasmids pY5-30, pYGPAT-GUS, pYAT-GUS and pDMW214 were grown from single colonies in 5 mL SD media at 30° C. for 24 hrs to an OD600˜8.0. Then, 1 mL of cells were collected by centrifugation. The remaining cultures were centrifuged and washed 2× with HGM, resuspended in 5 mL each of HGM and allowed to grow at 30° C. further. After 24 and 120 hrs, ˜0.25 mL of each culture were centrifuged to collect the cells. Cell samples were resuspended individually in 100 μl of histochemical staining buffer (supra). Zymolase 20T (5 μl of 1 mg/mL; ICN Biomedicals, Costa Mesa, Calif.) was added to each, and the mixture incubated at 30° C. […]

[4] = ATCC #76982 strains, MM, FIG. 5B

Row | Molecule | GUS activity ([1]; strain Y2034, 24 hr, HGM) | GUS activity ([1]; strain Y2034, 48 hr, SD) | GUS activity ([1]; strain Y2034, 120 hr HGM) | increase of promoter activity ([1]; switched from SD medium into HGM and grown for 24 hrs) [fold] | Activity “Rank” [2] | promoter activity by histochemical staining [3, 4] | reduction of promoter activity ([1]; switched from SD medium into HGM for 24 hrs) [%] | promoter activity by histochemical staining ([3]; strain Y2034, 24 hr in SD medium, FIG. 5C)
1 | TEF: Y. lipolytica translation elongation factor EF1-α promoter, SEQ ID NO:166 (nucleic acid, listed as Yarrowia lipolytica, misc_feature: Promoter TEF) DNA: GACCGGGTTGGCGGCGTATTTGTGTCCCAAAAAACAGCCCCAATTGCCCCAATTGACCCCAAATTGACCCAGTAGCGGGCCCAACCCCGGCGAGAGCCCCCTTCACCCCACATATCAAACCTCCCCCGGTTCCCACACTTGCCGTTAAGGGCGTAGGGTACTGCAGTCTGGAATCTACGCTTGTTCAGACTTTGTACTAGTTTCTTTGTCTGGCCATCCGGGTAACCCATGCCGGACGCAAAATAGACTACTGAAAATTTTTTTGCTTTGTGGTTGGGACTTTAGCCAAGGGTATAAAAGACCACCGTCCCCGAATTACCTTTCCTCTTCTTTTCTCTCTCTCCTTGTCAACTCACACCCGAAATCGTTAAGCATTTCCTTCTGAGTATAAGAATCATTCAAAGGATCCACTAGTTCTAGAGCGGCCGCTTAAACC | 0.942 nmoles of 4-MU per minute per mg of protein | 0.401 nmoles of 4-MU per minute per mg of protein | 0.466 nmoles of 4-MU per minute per mg of protein | 2.3 | 1 | active |  | 
2 | GPAT: Y. lipolytica glycerol-3-phosphate acyltransferase promoter, SEQ ID NO:164 (nucleic acid, listed as Yarrowia lipolytica, misc_feature: Promoter GPAT) DNA: CAACTTTTCTTGTCGACCTGAGATACCGAGGTTGCGCAGGGGATCAACTTTTGTGTCTCAGAGGGACCCAAGTGCGTACGGAGAGTACAGTACATACTGTAGCTAACGGTAGCAGGCGAACTACTGGTACATACCTCCCCCGGAATATGTACAGGCATAATGCGTATCTGTGGGACATGTGGTCGTTGCGCCATTATGTAAGCAGCGTGTACTCCTCTGACTGTCCATATGGTTTGCTCCATCTCACCCTCATCGTTTTCATTGTTCACAGGCGGCCACAAAAAAACTGTCTTCTCTCCTTCTCTCTTCGCCTTAGTCTACTCGGACCAGTTTTAGTTTAGCTTGGCGCCACTGGATAAATGAGACCTCAGGCCTTGTGATGAGGAGGTCACTTATGAAGCATGTTAGGAGGTGCTTGTATGGATAGAGAAGCACCCAAAATAATAAGAATAATAATAAAACAGGGGGCGTTGTCATTTCATATCGTGTTTTCACCATCAATACACCTCCAAACAATGCCCTTCATGTGGCCAGCCCCAATATTGTCCTGTAGTTCAACTCTATGCAGCTCGTATCTTATTGAGCAAGTAAAACTCTGTCAGCCGATATTGCCCGACCCGCGACAAGGGTCAACAAGGTGGTGTAAGGCCTTCGCAGAAGTCAAAACTGTGCCAAACAAACATCTAGAGTCTCTTTGGTGTTTCTCGCATATATTTAATCGGCTGTCTTACGTATTTGGCCTCGGTACCGGACTAATTTCGGATCATCCCCAATACGCTTTTTCTTCGCAGCTGTCAACAGTGTCCATGATCTATCCACCTAAATGGGTCATATGAGGCGTATAATTTCGTGGTGCTGATAATAATTCCCATATATTTGACACAAAACTTCCCCCCCTAGACATACATCTCACAATCTCACTTCTTGTGCTTCTGTCACACATCTCCTCCAGCTGACTTCAACTCACACCTCTGCCCCAGTTGGTCTACAGCGGTATAAGGTTTCTCCGCATAGAGGTGCACCACTCCTCCCGATACTTGTTTGTGTGACTTGTGGGTCACGACATATATATCTACACACATTGCGCCACCCTTTGGTTCTTCCAGCACAACAAAAACACGACACGCTAA | 2.969 nmoles of 4-MU per minute per mg of protein | 5.252 nmoles of 4-MU per minute per mg of protein | 3.050 nmoles of 4-MU per minute per mg of protein |  | 5 |  | 40 | active; also recorded: much stronger than the TEF promoter
3 | GPM: Y. lipolytica phosphoglycerate mutase promoter, SEQ ID NO:160 (nucleic acid, listed as Yarrowia lipolytica, misc_feature: Promoter GPM) DNA: GCCTCTGAATACTTTCAACAAGTTACACCCTTCATTAATTCTCACGTGACACAGATTATTAACGTCTCGTACCAACCACAGATTACGACCCATTCGCAGTCACAGTTCACTAGGGTTTGGGTTGCATCCGTTGAGAGCGGTTTGTTTTTAACCTTCTCCATGTGCTCACTCAGGTTTTGGGTTCAGATCAAATCAAGGCGTGAACCACTTTGTTTGAGGACAAATGTGACACAACCAACCAGTGTCAGGGGCAAGTCCGTGACAAAGGGGAAGATACAATGCAATTACTGACAGTTACAGACTGCCTCGATGCCCTAACCTTGCCCCAAAATAAGACAACTGTCCTCGTTTAAGCGCAACCCTATTCAGCGTCACGTCATAATAGCGTTTGGATAGCACTAGTCTATGAGGAGCGTTTTATGTTGCGGTGAGGGCGATTGGTGCTCATATGGGTTCAATTGAGGTGGCGGAACGAGCTTAGTCTTCAATTGAGGTGCGAGCGACACAATTGGGTGTCACGTGGCCTAATTGACCTCGGGTCGTGGAGTCCCCAGTTATACAGCAACCACGAGGTGCATGGGTAGGAGACGTCACCAGACAATAGGGTTTTTTTTGGACTGGAGAGGGTTGGGCAAAAGCGCTCAACGGGCTGTTTGGGGAGCTGTGGGGGAGGAATTGGCGATATTTGTGAGGTTAACGGCTCCGATTTGCGTGTTTTGTCGCTCCTGCATCTCCCCATACCCATATCTTCCCTCCCCACCTCTTTCCACGATAATTTTACGGATCAGCAATAAGGTTCCTTCTCCTAGTTTCCACGTCCATATATATCTATGCTGCGTCGTCCTTTTCGTGACATCACCAAAACACATACAAAAATG |  |  |  |  | 1 | active |  | 
